These results are taken from publication PMC10576099, “Endothelial discoidin domain receptor 1 senses flow to modulate YAP activation” (Nature Communications, 2023).

Data set [1] concerns the molecule itself. Nature of the data set: dual-color FRAP with antibody immobilisation; EA.hy926 ECs co-expressing DDR1-EGFP and mCherry-DDR1, 5 min pre-shear; anti-mCherry polyclonal antibody immobilises the mCherry copy, lateral mobility of the EGFP copy read by FRAP.
The target of the next data set is T1, DDR1 (416-913aa)-EGFP (human, UniProt Q08345 416-913).
T1 construct: human DDR1 (DDR1b), residues 416-913, containing the transmembrane and cytosolic domains; also called DDR1-C; source: E. coli Transetta (DE3), purified (Ni-NTA)
Nature of the data set: cell-free droplet (phase separation) assay + turbidity; purified DDR1-C or DDR1-N (5 μM) incubated with varying concentrations of YWHAE-Cherry; 20 mM Tris-HCl pH 7.0, 75 mmol/L KCl, 1 mmol/L DTT, 4 °C 5-10 min, confocal imaging; turbidity at 600 nm with 5% PEG8000. To be noted: both partners purified.

Substitutions are numbered along the chain they refer to. Names may count otherwise.

B1: WT DDR1-EGFP co-expressed with mCherry-WT DDR1 (dual-color FRAP) (receptor, human, UniProt Q08345 19-913, looked up)
chain: DADMKGHFDPAKCRYALGMQDRTIPDSDISASSSWSDSTAARHSRLESSDGDGAWCPAGSVFPKEEEYLQVDLQRLHLVALVGTQGRHAGGLGKEFSRSYRLRYSRDGRRWMGWKDRWGQEVISGNEDPEGVVLKDLGPPMVARLVRFYPRADRVMSVCLRVELYGCLWRDGLLSYTAPVGQTMYLSEAVYLNDSTYDGHTVGGLQYGGLGQLADGVVGLDDFRKSQELRVWPGYDYVGWSNHSFSSGYVEMEFEFDRLRAFQAMQVHCNNMHTLGARLPGGVECRFRRGPAMAWEGEPMRHNLGGNLGDPRARAVSVPLGGRVARFLQCRFLFAGPWLLFSEISFISDVVNNSSPALGGTFPPAPWWPPGPPPTNFSSLELEPRGQQPVAKAEGSPTAILIGCLVAIILLLLLIIALMLWRLHWRRLLSKAERRVLEEELTVHLSVPGDTILINNRPGPREPPPYQEPRPRGNPPHSAPCVPNGSALLLSNPAYRLLLATYARPPRGPGPPTPAWAKPTNTQAYSGDYMEPEKPGAPLLPPPPQNSVPHYAEADIVTLQGVTGGNTYAVPALPPGAVGDGPPRVDFPRSRLRFKEKLGEGQFGEVHLCEVDSPQDLVSLDFPLNVRKGHPLLVAVKILRPDATKNARNDFLKEVKIMSRLKDPNIIRLLGVCVQDDPLCMITDYMENGDLNQFLSAHQLEDKAAEGAPGDGQAAQGPTISYPMLLHVAAQIASGMRYLATLNFVHRDLATRNCLVGENFTIKIADFGMSRNLYAGDYYRVQGRAVLPIRWMAWECILMGKFTTASDVWAFGVTLWEVLMLCRAQPFGQLTDEQVIENAGEFFRDQGRQVYLSRPPACPQGLYELMLRCWSRESEQRPPFSQLHRFLAEDALNTV
notes: human DDR1, DDR1b isoform, from a plasmid with full-length DDR1b; Two differently tagged copies of the same protein in one cell: each copy has only one of the two fluorescent proteins; The mCherry copy is held by an anti-mCherry polyclonal antibody, the EGFP copy is the one whose mobility is read; also called DDR1 (WT)-GFP; mCherry-DDR1 (WT); source: EA.hy926 ECs, transfected, in living cells; …
Turning to B1, in data set [1], the “FRAP recovery ratio of the EGFP copy with the mCherry copy immobilised” value was 49.2 ± 9.6%.

B2: locked DDR1-EGFP (D189C/F364C) co-expressed with mCherry-locked DDR1 (dual-color FRAP) (receptor, human, UniProt Q08345 19-913, looked up)
chain: B1 chain with D171C, F346C
notes: human DDR1, DDR1b isoform, DS-like domain locked by two cysteines; Two differently tagged copies of the same mutant in one cell, as for m3; also called DS-like locked mutant; source: EA.hy926 ECs, transfected, in living cells; not shown: EGFP (on one copy); mCherry (on the other copy)
For B2, the “FRAP recovery ratio of the EGFP copy with the mCherry copy immobilised” value in data set [1] stood at 67.6 ± 4%.

B3: YWHAE-Cherry recombinant protein (natural protein, UniProt P62258 1-255, looked up)
chain: MDDREDLVYQAKLAEQAERYDEMVESMKKVAGMDVELTVEERNLLSVAYKNVIGARRASWRIISSIEQKEENKGGEDKLKMIREYRQMVETELKLICCDILDVLDKHLIPAANTGESKVFYYKMKGDYHRYLAEFATGNDRKEAAENSLVAYKAASDIAMTELPPTHPIRLGLALNFSVFYYEILNSPDRACRLAKAAFDDAIAELDTLSEESYKDSTLIMQLLRDNLTLWTSDMQGDGEEQNKEALQDVEDENQ
notes: YWHAE (14-3-3ε), Uniprot No. P62258; also called recombinant YWHAE protein; source: bought: Dai-An Biotechnology (Wuhan); expressed by E. coli BL21 (DE3), purity >90% by SDS-PAGE; not shown: mCherry, C-terminal, kept
Turning to B3, in the data set with DDR1 (416-913aa)-EGFP, the binding result is given as “binds”.
